# Results: patent US20110305670A1
# Columns and labels:
# [1] = target: envelope glycoprotein of the R5 isolate YU2, on virus (HIV-1 (YU2 isolate)) (UniProt P35961); experiment: cell-based or functional assay
# [2] = target: envelope glycoprotein of the R5X4 isolate 89.6, on virus (HIV-1 (89.6 isolate)) (UniProt Q73372); experiment: cell-based or functional assay
# UniProt P35961, sequence (P35961 32-843): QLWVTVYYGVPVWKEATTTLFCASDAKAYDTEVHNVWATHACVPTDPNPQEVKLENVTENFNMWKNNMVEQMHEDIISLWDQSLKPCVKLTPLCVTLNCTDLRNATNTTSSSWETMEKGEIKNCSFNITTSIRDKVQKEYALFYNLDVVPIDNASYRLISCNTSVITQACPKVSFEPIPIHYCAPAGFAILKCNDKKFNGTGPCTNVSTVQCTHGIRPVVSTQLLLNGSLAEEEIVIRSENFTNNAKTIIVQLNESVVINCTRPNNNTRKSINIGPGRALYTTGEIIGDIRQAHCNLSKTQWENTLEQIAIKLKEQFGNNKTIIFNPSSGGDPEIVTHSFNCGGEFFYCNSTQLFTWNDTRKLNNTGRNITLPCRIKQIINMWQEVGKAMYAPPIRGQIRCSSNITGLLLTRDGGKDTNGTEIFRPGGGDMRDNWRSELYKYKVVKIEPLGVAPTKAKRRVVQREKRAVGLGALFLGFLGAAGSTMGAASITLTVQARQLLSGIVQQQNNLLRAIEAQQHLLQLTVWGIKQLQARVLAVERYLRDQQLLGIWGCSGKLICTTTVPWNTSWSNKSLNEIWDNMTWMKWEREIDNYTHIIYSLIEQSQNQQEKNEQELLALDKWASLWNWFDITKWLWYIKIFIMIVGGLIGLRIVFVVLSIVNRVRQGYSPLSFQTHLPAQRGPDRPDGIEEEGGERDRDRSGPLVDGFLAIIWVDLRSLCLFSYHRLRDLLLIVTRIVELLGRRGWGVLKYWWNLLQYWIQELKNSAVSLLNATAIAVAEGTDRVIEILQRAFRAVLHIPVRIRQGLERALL
substance,measurement,setting,value
eCD4-Ig (from UniProt P01730 26-203) (Fc fusion),IC50 difference between CD4-Ig and eCD4-Ig (fold),[1],3 fold
same,"neutralization of GFP-expressing HIV-1, IC50",[1],2 nM
same,IC50 difference between CD4-Ig and eCD4-Ig (fold),[2],50 fold
same,"neutralization of GFP-expressing HIV-1, IC50",[2],600 pM
